Assay results taken from US7223398.

Assays:
[1] = target: Amb a 1 specific IgE (in serum); assay: competition ELISA: soluble competitor pre-incubated with serum, IgE binding to plate-coated Amb a 1
[2] = target: IgE on basophils of ragweed allergic patients; assay: cell-based or functional assay
[3] = target: Amb a 1 specific IgE (in serum); assay: competition ELISA, ratio against soluble Amb a 1 as reference
[4] = target: Amb a 1 specific IgE (in serum); assay: competition ELISA: soluble competitor pre-incubated with serum, IgE binding to plate-coated Amb a 1; two lots gave the same value

| Binder | IC50 [1] [µg/mL] | HR40 (concentration required to induce 40% histamine release), patient four [2] [µg/mL] | HR40 (concentration required to induce 40% histamine release), patient one [2] [µg/mL] | HR40 (concentration required to induce 40% histamine release), patient three [2] [µg/mL] | HR40 (concentration required to induce 40% histamine release), patient two [2] [µg/mL] | HR40, mean of four patients [2] [µg/mL] | ratio of AIC-M to Amb a 1 for 50% inhibition [3] | Ratio AIC:Amb a 1 of HR40 [2] [fold] | IC50 [4] [µg/mL] | ratio of AIC-H to Amb a 1 for 50% inhibition [3] |
| --- | --- | --- | --- | --- | --- | --- | --- | --- | --- | --- |
| AIC-L (covalent conjugate of Amb a 1 and ISS-containing polynucleotide SEQ ID NO:1, low extent of conjugation) (protein, ragweed, UniProt P27759 26-396, looked up, average of 2-3 oligonucleotides (5' thio ISS oligonucleotide, SEQ ID NO:1) per Amb a 1 molecule, linked through the heterobifunctional linker sSMCC; Amb a 1 blocked with N-ethyl maleimide before activation) AEDLQEILPVNETRRLTTSGAYNIIDGCWRGKADWAENRKALADCAQGFGKGTVGGKDGDIYTVTSELDDDVANPKEGTLRFGAAQNRPLWIIFERDMVIRLDKEMVVNSDKTIDGRGAKVEIINAGFTLNGVKNVIIHNINMHDVKVNPGGLIKSNDGPAAPRAGSDGDAISISGSSQIWIDHCSLSKSVDGLVDAKLGTTRLTVSNSLFTQHQFVLLFGAGDENIEDRGMLATVAFNTFTDNVDQRMPRCRHGFFQVVNNNYDKWGSYAIGGSASPTILSQGNRFCAPDERSKKNVLGRHGEAAAESMKWNWRTNKDVLENGAIFVASGVDPVLTPEQSAGMIPAEPGESALSLTSSAGVLSCQPGAPC |  | 0.026 | 0.02 | 0.01 | 0.018 | 0.0185 |  | 62 |  |  |
| AIC-H (covalent conjugate of Amb a 1 and ISS-containing polynucleotide SEQ ID NO:1, high extent of conjugation) (protein, ragweed, UniProt P27759 26-396, looked up, average of >5.5 oligonucleotides (5' thio ISS oligonucleotide, SEQ ID NO:1) per Amb a 1 molecule, linked through the heterobifunctional linker sSMCC; Amb a 1 blocked with N-ethyl maleimide before activation) AEDLQEILPVNETRRLTTSGAYNIIDGCWRGKADWAENRKALADCAQGFGKGTVGGKDGDIYTVTSELDDDVANPKEGTLRFGAAQNRPLWIIFERDMVIRLDKEMVVNSDKTIDGRGAKVEIINAGFTLNGVKNVIIHNINMHDVKVNPGGLIKSNDGPAAPRAGSDGDAISISGSSQIWIDHCSLSKSVDGLVDAKLGTTRLTVSNSLFTQHQFVLLFGAGDENIEDRGMLATVAFNTFTDNVDQRMPRCRHGFFQVVNNNYDKWGSYAIGGSASPTILSQGNRFCAPDERSKKNVLGRHGEAAAESMKWNWRTNKDVLENGAIFVASGVDPVLTPEQSAGMIPAEPGESALSLTSSAGVLSCQPGAPC |  | > 1 | 0.5 | > 0.1 | > 0.1 | > 0.425 |  | > 1420 | 0.19 | 4.75 |

Second part, the binder after the results:

| IC50 [1] [µg/mL] | HR40 (concentration required to induce 40% histamine release), patient four [2] [µg/mL] | HR40 (concentration required to induce 40% histamine release), patient one [2] [µg/mL] | HR40 (concentration required to induce 40% histamine release), patient three [2] [µg/mL] | HR40 (concentration required to induce 40% histamine release), patient two [2] [µg/mL] | HR40, mean of four patients [2] [µg/mL] | ratio of AIC-M to Amb a 1 for 50% inhibition [3] | Ratio AIC:Amb a 1 of HR40 [2] [fold] | IC50 [4] [µg/mL] | ratio of AIC-H to Amb a 1 for 50% inhibition [3] | Binder |
| --- | --- | --- | --- | --- | --- | --- | --- | --- | --- | --- |
| 0.04 | 0.0003 | 0.0002 | 0.0003 | 0.0002 | 0.0003 |  |  |  |  | ragweed allergen Amb a 1 (protein, UniProt P27759 26-396, looked up) AEDLQEILPVNETRRLTTSGAYNIIDGCWRGKADWAENRKALADCAQGFGKGTVGGKDGDIYTVTSELDDDVANPKEGTLRFGAAQNRPLWIIFERDMVIRLDKEMVVNSDKTIDGRGAKVEIINAGFTLNGVKNVIIHNINMHDVKVNPGGLIKSNDGPAAPRAGSDGDAISISGSSQIWIDHCSLSKSVDGLVDAKLGTTRLTVSNSLFTQHQFVLLFGAGDENIEDRGMLATVAFNTFTDNVDQRMPRCRHGFFQVVNNNYDKWGSYAIGGSASPTILSQGNRFCAPDERSKKNVLGRHGEAAAESMKWNWRTNKDVLENGAIFVASGVDPVLTPEQSAGMIPAEPGESALSLTSSAGVLSCQPGAPC |
| 0.12 | 0.07 | 0.03 | 0.03 | 0.028 | 0.0395 | 3 | 132 |  |  | AIC-M (covalent conjugate of Amb a 1 and ISS-containing polynucleotide SEQ ID NO:1, medium extent of conjugation) (protein, ragweed, UniProt P27759 26-396, looked up, average of 3.5 to 4.5 oligonucleotides (5' thio ISS oligonucleotide, SEQ ID NO:1) per Amb a 1 molecule, linked through the heterobifunctional linker sSMCC; Amb a 1 blocked with N-ethyl maleimide before activation) AEDLQEILPVNETRRLTTSGAYNIIDGCWRGKADWAENRKALADCAQGFGKGTVGGKDGDIYTVTSELDDDVANPKEGTLRFGAAQNRPLWIIFERDMVIRLDKEMVVNSDKTIDGRGAKVEIINAGFTLNGVKNVIIHNINMHDVKVNPGGLIKSNDGPAAPRAGSDGDAISISGSSQIWIDHCSLSKSVDGLVDAKLGTTRLTVSNSLFTQHQFVLLFGAGDENIEDRGMLATVAFNTFTDNVDQRMPRCRHGFFQVVNNNYDKWGSYAIGGSASPTILSQGNRFCAPDERSKKNVLGRHGEAAAESMKWNWRTNKDVLENGAIFVASGVDPVLTPEQSAGMIPAEPGESALSLTSSAGVLSCQPGAPC |
